Values belong to the substance of their own block, whether it stands above or below them.
Key:
[1] = biological target: H2AK119u1(I44A) mononucleosomes (Xenopus | not stated) (UniProt P0CG48); assay: BLI; biotinylated mononucleosomes immobilised on streptavidin biosensors; Jarid2 1-530 at 2–25 μM; 25 °C; 10 mM HEPES pH 7.4, 150 mM NaCl, 3 mM EDTA, 0.005% Tween-20, 1 mg/ml BSA; kon and koff from kobs versus concentration; n=3
[2] = biological target: unmodified mononucleosomes (Xenopus); assay: as above
[3] = biological target: H2AK119u1-modified mononucleosomes (Xenopus | not stated); assay: as above
JARID2 1-530 (hJARID2) = assay: BLI; conditions: BLI: 10 mM HEPES pH 7.4, 150 mM NaCl, 3 mM EDTA, 0.005% Tween-20, 1 mg/ml BSA, 25 C, pull-down buffer not given in the material

Kd [1]: 5.1 µM | Kd [2]: 5 µM | Kd [3]: 2.8 µM
Substance: hJARID2 1–530 (from UniProt Q92833 1-530) (domain or fragment)

Substance: H2AK119u1(I44A) mononucleosome (601, 147 bp)
Kd (JARID2 1-530 (hJARID2); H2A K119C crosslinked to His-ubiquitin I44A;G67C (so in the source)): 5.1 µM

Substance: unmodified mononucleosome (601, 147 bp)
Kd (JARID2 1-530 (hJARID2); kon 313 s-1 (so in the source)): 5 µM

Substance: H2AK119u1 mononucleosome (601, 147 bp)
Kd (JARID2 1-530 (hJARID2); kon 576 s-1 (so in the source), H2A K119C crosslinked to His-ubiquitin G67C (so in the source) by 1,3-dichloroacetone): 2.8 µM
